The target in the test is GST-HA-ATG16L1(231–607) (UniProt Q676U5). The test is described as follows: peptide microarray. As to conditions: 800, 600, 400 nM; n = 9; read off a plot.

As to “TMEM59 peptide (residues 268–280), wild type (from UniProt Q9BXS4) K273del; L274del; S275del”, the percent of parent is 120 % WT.
On to “TMEM59 peptide (residues 268–280), wild type (from UniProt Q9BXS4) L274del”, for which the percent of parent came to 22 % WT.
Consider “TMEM59 peptide (residues 268–280), wild type (from UniProt Q9BXS4) K273del; I276del”, for which the percent of parent stood at 32 % WT.
The result for “TMEM59 peptide (residues 268–280), wild type (from UniProt Q9BXS4) L274del; S275del; I276del” reads 72 % WT; that for “TMEM59 peptide (residues 268–280), wild type (from UniProt Q9BXS4) K273del”, 15 % WT.
For “TMEM59 peptide (residues 268–280), wild type (from UniProt Q9BXS4) P270del”, the percent of parent worked out at 160 % WT.
In the case of “TMEM59 peptide (residues 268–280), wild type (from UniProt Q9BXS4) L274del; S275del”, the percent of parent was 120 % WT.
Take “TMEM59 peptide (residues 268–280), wild type (from UniProt Q9BXS4) S275del; I276del”: the percent of parent was 80 % WT.
Consider “TMEM59 peptide (residues 268–280), wild type (from UniProt Q9BXS4) K273del; S275del”, for which the percent of parent turned out to be 160 % WT.
The same measure for “TMEM59 peptide (residues 268–280), wild type (from UniProt Q9BXS4) S275del”: 100 % WT; for “TMEM59 peptide (residues 268–280), wild type (from UniProt Q9BXS4) V269del; S271del”: 180 % WT.
As for “TMEM59 peptide (residues 268–280), wild type (from UniProt Q9BXS4) K273del; L274del; I276del”, the percent of parent stood at 7 % WT.
“TMEM59 peptide (residues 268–280), wild type (from UniProt Q9BXS4) V269del”: the percent of parent was determined as 20 % WT.
With “TMEM59 peptide (residues 268–280), wild type (from UniProt Q9BXS4) V269del; P270del”, the percent of parent worked out at 130 % WT.
With “TMEM59 peptide (residues 268–280), wild type (from UniProt Q9BXS4) I276del”, the percent of parent was 50 % WT.
On to “TMEM59 peptide (residues 268–280), wild type (from UniProt Q9BXS4) P270del; S271del”, for which the percent of parent is 180 % WT.
Take “TMEM59 peptide (residues 268–280), wild type (from UniProt Q9BXS4) K273del; L274del”: the percent of parent is 22 % WT.
“TMEM59 peptide (residues 268–280), wild type (from UniProt Q9BXS4) S271del”: the percent of parent was determined as 180 % WT.
Consider “TMEM59 peptide (residues 268–280), wild type (from UniProt Q9BXS4) L274del; I276del”, for which the percent of parent was 20 % WT.

(Values after PMC7679444.)
